Test results: patent publication US20250073311A1, “DOSAGE REGIME” (ZEALAND PHARMA A/S, priority 2021, published 2025)
Numbered stars: 1 amine (or outer) side, 2 acyl side, 3 side chain; on linkers, the order of the positions; unused ones are H or OH. Square brackets hold non-standard residues; d marks the D form. Side chains are listed from the residue outwards. * marks the point of attachment. C18 diacid = O=C(O)CCCCCCCCCCCCCCCCC(=O)*; γGlu = O=C(O)[C@H](CCC(=O)[*:2])N[*:1]; Aib = CC(C)(N)C(=O)O

T1: human GLP-2 receptor (hGLP2-R) (human, UniProt O95838)
T1 sequence: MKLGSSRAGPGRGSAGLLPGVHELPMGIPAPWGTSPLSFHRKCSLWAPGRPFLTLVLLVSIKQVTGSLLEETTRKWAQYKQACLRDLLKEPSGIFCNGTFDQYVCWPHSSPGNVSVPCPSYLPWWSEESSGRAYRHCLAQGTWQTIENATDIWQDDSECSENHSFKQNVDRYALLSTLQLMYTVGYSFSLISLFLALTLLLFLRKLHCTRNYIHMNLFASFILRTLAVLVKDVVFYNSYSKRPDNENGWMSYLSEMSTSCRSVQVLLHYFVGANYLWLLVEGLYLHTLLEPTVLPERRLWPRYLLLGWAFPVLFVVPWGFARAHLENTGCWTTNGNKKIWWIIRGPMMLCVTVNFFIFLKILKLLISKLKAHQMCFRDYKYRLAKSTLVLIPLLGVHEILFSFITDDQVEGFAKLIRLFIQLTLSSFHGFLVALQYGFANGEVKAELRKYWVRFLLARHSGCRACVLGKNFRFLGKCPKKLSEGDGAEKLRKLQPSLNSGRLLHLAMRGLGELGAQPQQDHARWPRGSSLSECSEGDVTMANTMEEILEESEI

B1: Compound 24 (peptide)
peptide: H-H[Aib]EGSFTSELATILDK([γGlu-C18 diacid])QAARDFIAWLIEHKITD-OH
SMILES: CC[C@H](C)[C@H](NC(=O)[C@H](Cc1ccccc1)NC(=O)[C@H](CC(=O)O)NC(=O)[C@H](CCCNC(=N)N)NC(=O)[C@H](C)NC(=O)[C@H](C)NC(=O)[C@H](CCC(N)=O)NC(=O)[C@H](CCCCNC(=O)CC[C@H](NC(=O)CCCCCCCCCCCCCCCCC(=O)O)C(=O)O)NC(=O)[C@H](CC(=O)O)NC(=O)[C@H](CC(C)C)NC(=O)[C@@H](NC(=O)[C@@H](NC(=O)[C@H](C)NC(=O)[C@H](CC(C)C)NC(=O)[C@H](CCC(=O)O)NC(=O)[C@H](CO)NC(=O)[C@@H](NC(=O)[C@H](Cc1ccccc1)NC(=O)[C@H](CO)NC(=O)CNC(=O)[C@H](CCC(=O)O)NC(=O)C(C)(C)NC(=O)[C@@H](N)Cc1c[nH]cn1)[C@@H](C)O)[C@@H](C)O)[C@@H](C)CC)C(=O)N[C@@H](C)C(=O)N[C@@H](Cc1c[nH]c2ccccc12)C(=O)N[C@@H](CC(C)C)C(=O)N[C@H](C(=O)N[C@@H](CCC(=O)O)C(=O)N[C@@H](Cc1c[nH]cn1)C(=O)N[C@@H](CCCCN)C(=O)N[C@H](C(=O)N[C@H](C(=O)N[C@@H](CC(=O)O)C(=O)O)[C@@H](C)O)[C@@H](C)CC)[C@@H](C)CC
B2: Compound 22 (peptide)
peptide: H-H[Aib]EGSFTSELATILDK([γGlu-C18 diacid])QAARDFIAWLIAHKITD-OH
SMILES: CC[C@H](C)[C@H](NC(=O)[C@H](CC(C)C)NC(=O)[C@H](Cc1c[nH]c2ccccc12)NC(=O)[C@H](C)NC(=O)[C@@H](NC(=O)[C@H](Cc1ccccc1)NC(=O)[C@H](CC(=O)O)NC(=O)[C@H](CCCNC(=N)N)NC(=O)[C@H](C)NC(=O)[C@H](C)NC(=O)[C@H](CCC(N)=O)NC(=O)[C@H](CCCCNC(=O)CC[C@H](NC(=O)CCCCCCCCCCCCCCCCC(=O)O)C(=O)O)NC(=O)[C@H](CC(=O)O)NC(=O)[C@H](CC(C)C)NC(=O)[C@@H](NC(=O)[C@@H](NC(=O)[C@H](C)NC(=O)[C@H](CC(C)C)NC(=O)[C@H](CCC(=O)O)NC(=O)[C@H](CO)NC(=O)[C@@H](NC(=O)[C@H](Cc1ccccc1)NC(=O)[C@H](CO)NC(=O)CNC(=O)[C@H](CCC(=O)O)NC(=O)C(C)(C)NC(=O)[C@@H](N)Cc1c[nH]cn1)[C@@H](C)O)[C@@H](C)O)[C@@H](C)CC)[C@@H](C)CC)C(=O)N[C@@H](C)C(=O)N[C@@H](Cc1c[nH]cn1)C(=O)N[C@@H](CCCCN)C(=O)N[C@H](C(=O)N[C@H](C(=O)N[C@@H](CC(=O)O)C(=O)O)[C@@H](C)O)[C@@H](C)CC
B3: Compound 23 (peptide)
peptide: H-H[Aib]EGTFTSELATILDK([γGlu-C18 diacid])QAARDFIAWLIAHKITD-OH
SMILES: CC[C@H](C)[C@H](NC(=O)[C@H](CC(C)C)NC(=O)[C@H](Cc1c[nH]c2ccccc12)NC(=O)[C@H](C)NC(=O)[C@@H](NC(=O)[C@H](Cc1ccccc1)NC(=O)[C@H](CC(=O)O)NC(=O)[C@H](CCCNC(=N)N)NC(=O)[C@H](C)NC(=O)[C@H](C)NC(=O)[C@H](CCC(N)=O)NC(=O)[C@H](CCCCNC(=O)CC[C@H](NC(=O)CCCCCCCCCCCCCCCCC(=O)O)C(=O)O)NC(=O)[C@H](CC(=O)O)NC(=O)[C@H](CC(C)C)NC(=O)[C@@H](NC(=O)[C@@H](NC(=O)[C@H](C)NC(=O)[C@H](CC(C)C)NC(=O)[C@H](CCC(=O)O)NC(=O)[C@H](CO)NC(=O)[C@@H](NC(=O)[C@H](Cc1ccccc1)NC(=O)[C@@H](NC(=O)CNC(=O)[C@H](CCC(=O)O)NC(=O)C(C)(C)NC(=O)[C@@H](N)Cc1c[nH]cn1)[C@@H](C)O)[C@@H](C)O)[C@@H](C)O)[C@@H](C)CC)[C@@H](C)CC)C(=O)N[C@@H](C)C(=O)N[C@@H](Cc1c[nH]cn1)C(=O)N[C@@H](CCCCN)C(=O)N[C@H](C(=O)N[C@H](C(=O)N[C@@H](CC(=O)O)C(=O)O)[C@@H](C)O)[C@@H](C)CC
B4: Compound 20 (peptide)
peptide: H-H[Aib]EGTFSSELATILDK([γGlu-C18 diacid])QAARDFIAWLIEHKITD-OH
SMILES: CC[C@H](C)[C@H](NC(=O)[C@H](Cc1ccccc1)NC(=O)[C@H](CC(=O)O)NC(=O)[C@H](CCCNC(=N)N)NC(=O)[C@H](C)NC(=O)[C@H](C)NC(=O)[C@H](CCC(N)=O)NC(=O)[C@H](CCCCNC(=O)CC[C@H](NC(=O)CCCCCCCCCCCCCCCCC(=O)O)C(=O)O)NC(=O)[C@H](CC(=O)O)NC(=O)[C@H](CC(C)C)NC(=O)[C@@H](NC(=O)[C@@H](NC(=O)[C@H](C)NC(=O)[C@H](CC(C)C)NC(=O)[C@H](CCC(=O)O)NC(=O)[C@H](CO)NC(=O)[C@H](CO)NC(=O)[C@H](Cc1ccccc1)NC(=O)[C@@H](NC(=O)CNC(=O)[C@H](CCC(=O)O)NC(=O)C(C)(C)NC(=O)[C@@H](N)Cc1c[nH]cn1)[C@@H](C)O)[C@@H](C)O)[C@@H](C)CC)C(=O)N[C@@H](C)C(=O)N[C@@H](Cc1c[nH]c2ccccc12)C(=O)N[C@@H](CC(C)C)C(=O)N[C@H](C(=O)N[C@@H](CCC(=O)O)C(=O)N[C@@H](Cc1c[nH]cn1)C(=O)N[C@@H](CCCCN)C(=O)N[C@H](C(=O)N[C@H](C(=O)N[C@@H](CC(=O)O)C(=O)O)[C@@H](C)O)[C@@H](C)CC)[C@@H](C)CC
B5: Compound 21 (peptide)
peptide: H-H[Aib]EGTFSSELATILDK([γGlu-C18 diacid])QAARDFIAWLIAHKITD-OH
SMILES: CC[C@H](C)[C@H](NC(=O)[C@H](CC(C)C)NC(=O)[C@H](Cc1c[nH]c2ccccc12)NC(=O)[C@H](C)NC(=O)[C@@H](NC(=O)[C@H](Cc1ccccc1)NC(=O)[C@H](CC(=O)O)NC(=O)[C@H](CCCNC(=N)N)NC(=O)[C@H](C)NC(=O)[C@H](C)NC(=O)[C@H](CCC(N)=O)NC(=O)[C@H](CCCCNC(=O)CC[C@H](NC(=O)CCCCCCCCCCCCCCCCC(=O)O)C(=O)O)NC(=O)[C@H](CC(=O)O)NC(=O)[C@H](CC(C)C)NC(=O)[C@@H](NC(=O)[C@@H](NC(=O)[C@H](C)NC(=O)[C@H](CC(C)C)NC(=O)[C@H](CCC(=O)O)NC(=O)[C@H](CO)NC(=O)[C@H](CO)NC(=O)[C@H](Cc1ccccc1)NC(=O)[C@@H](NC(=O)CNC(=O)[C@H](CCC(=O)O)NC(=O)C(C)(C)NC(=O)[C@@H](N)Cc1c[nH]cn1)[C@@H](C)O)[C@@H](C)O)[C@@H](C)CC)[C@@H](C)CC)C(=O)N[C@@H](C)C(=O)N[C@@H](Cc1c[nH]cn1)C(=O)N[C@@H](CCCCN)C(=O)N[C@H](C(=O)N[C@H](C(=O)N[C@@H](CC(=O)O)C(=O)O)[C@@H](C)O)[C@@H](C)CC
B6: Compound 19 (peptide)
peptide: H-H[Aib]EGTFTSELATILDK([γGlu-C18 diacid])QAARDFIAWLIQHKITD-OH
SMILES: CC[C@H](C)[C@H](NC(=O)[C@H](Cc1ccccc1)NC(=O)[C@H](CC(=O)O)NC(=O)[C@H](CCCNC(=N)N)NC(=O)[C@H](C)NC(=O)[C@H](C)NC(=O)[C@H](CCC(N)=O)NC(=O)[C@H](CCCCNC(=O)CC[C@H](NC(=O)CCCCCCCCCCCCCCCCC(=O)O)C(=O)O)NC(=O)[C@H](CC(=O)O)NC(=O)[C@H](CC(C)C)NC(=O)[C@@H](NC(=O)[C@@H](NC(=O)[C@H](C)NC(=O)[C@H](CC(C)C)NC(=O)[C@H](CCC(=O)O)NC(=O)[C@H](CO)NC(=O)[C@@H](NC(=O)[C@H](Cc1ccccc1)NC(=O)[C@@H](NC(=O)CNC(=O)[C@H](CCC(=O)O)NC(=O)C(C)(C)NC(=O)[C@@H](N)Cc1c[nH]cn1)[C@@H](C)O)[C@@H](C)O)[C@@H](C)O)[C@@H](C)CC)C(=O)N[C@@H](C)C(=O)N[C@@H](Cc1c[nH]c2ccccc12)C(=O)N[C@@H](CC(C)C)C(=O)N[C@H](C(=O)N[C@@H](CCC(N)=O)C(=O)N[C@@H](Cc1c[nH]cn1)C(=O)N[C@@H](CCCCN)C(=O)N[C@H](C(=O)N[C@H](C(=O)N[C@@H](CC(=O)O)C(=O)O)[C@@H](C)O)[C@@H](C)CC)[C@@H](C)CC

biological target: human glucagon-like peptide 1 receptor (GLP-1R) (human, UniProt P43220); assay: cell-based or functional assay

Binder | EC50 GLP-1 (nM), cAMP AlphaScreen [nM]
B1 | 0.21
B2 | 0.23
B3 | 0.13
B4 | 0.55
B5 | 1.8
B6 | 0.066

biological target: T1, human GLP-2 receptor (hGLP2-R); assay: cell-based or functional assay

Binder | EC50 GLP-2 (nM), cAMP AlphaScreen [nM]
B1 | 0.17
B2 | 0.2
B3 | 0.24
B4 | 0.37
B5 | 0.27
B6 | 0.23
